Test results published in PMC13371181, “A paracrine-to-autocrine shunt of GREM1 fuels colorectal cancer metastasis via ACVR1C” (Molecular Cancer, 2026).
Entries after “also recorded” stand apart in the source; their conditions may differ. One block for each molecule: values may come before it.

Tests used:
[1] = biological target: FGFR1 (Homo sapiens) (UniProt P11362); details: cited from earlier work
[2] = biological target: ACVR1C-ECD; assay: MST binding of ACVR1C-ECD-Fc to GREM1-His or ACTIVIN B-His; design: species or system human; details: Monolith NT.115, ACVR1C-ECD-Fc 0–27.5 µM vs 50 nM red-fluorescently labeled His-protein, PBS pH 7.4, premium capillaries, n = 3 independent experiments, mean ± s.e.m.
Text: Expi293F cells were transfected with a pcDNA3.4-ACVR1C-ECD-Fc and pcDNA3.4-ACVR1C-ECD-Fc-double mutant (E85A/T101A) expression vector to produce the target protein, which was subsequently purified using a Protein G column. Briefly, the coding sequence (CDS) of the human ACVR1C extracellular domain (ACVR1C-ECD, NM_145259.3, residues 1–113) fused to an Fc tag was cloned into the pcDNA3.4 vector. Expi293F cells were transfected with this construct, the supernatant was harvested 5 days post transfection.
MST was carried out on a Monolith NT.115 instrument (NanoTemper Technologies GmbH, MO-L011). To evaluate ACVR1C-ECD or ACVR1C peptide or ACVR1C-ECD-double mutant (E85A/T101A) binding to GREM1-His or ACTIVIN B-His, an increasing concentration of purified ACVR1C-ECD-Fc protein (0–27.5 µM) or ACVR1C peptide (0–2.3 µM) or ACVR1C-ECD-double mutant (0–27.5 µM) was incubated with 50 nM red-fluorescently labeled (NanoTemper Technologies GmbH, MO-L011) GREM1-His protein (R&D, 5190-GR) or ACTIVIN B-His protein (SinoBiological, 10814-H08H). Experiments were carried out in a PBS buffer pH 7.4 using premium capillaries (NanoTemper Technologies GmbH, MO-K025).

[3] = tested on: ACVR1C; assay: Co-immunoprecipitation of GREM1 and ACVR1C; type: binding, human; details: co-IP, truncation or point mutants, HCT116 cells
Experimental: HCT116 cells were transfected with the indicated plasmids and lysed in NP40 lysis buffer (Beyotime, P0013F) supplemented with protease inhibitor cocktail (Thermo, 78446). Lysates were incubated with the indicated Anti-Flag nanobody magarose beads (Ktsm-life, KTSM1338), Anti-HA nanobody magarose beads (Ktsm-life, KTSM1335) or Anti-GFP nanobody magarose beads (Ktsm-life, KTSM1334) overnight at 4 °C. The protein complex was washed four times with the NP40 lysis buffer, eluted with 1×loading buffer (Beyotime, P0015) by boiling for 5 min, followed by mass spectrometry and immunoblotting with the indicated antibodies.
Protein was extracted from the cells with RIPA buffer (Beyotime, P0018) or NP40 lysis buffer (Beyotime, P0013F) and separated by SDS-PAGE, and transferred to polyvinylidene difluoride membranes. Primary antibodies against GREM1 (1:1,000, SinoBiological, 50016-R117), ACVR1C (1:1,000, Thermo, PA587475), Flag-tag (1:1,000, CST, 14793), HA-tag (1:1,000, CST, 3724), E-Cadherin (1:1,000, CST, 3195), β-Catenin (1:1,000, CST, 8480), ZEB1 (1:1,000, CST, 3396), Snail (1:1,000, CST, 3879), SMAD2/3 (1:1,000, CST, 8685), p-SMAD2/3 (1:1,000, CST, 8828), SMAD1 (1:1,000, CST, 6944), p-SMAD1/5/9 (1:1,000, CST, 13820), TGFβ (1:1,000, CST, 3709), TGFβR1 (0.3 µg/mL, R&D, AF3025), β-actin (1:5,000, Beyotime, AF0003) and GAPDH (1:5,000, Beyotime, AF0006) were used in this study. Peroxidase-conjugated secondary antibody (1:10,000, Cell Signaling Technology, 7074, 7076) was used and signal was visualized using an enhanced chemiluminescence assay (ECL, Thermo), according to the manufacturer’s protocol. Band intensity was quantified using Fiji (ImageJ) by grayscale analysis.

[4] = tested on: CRC cells (SW480, HCT116, and MC38); assay: GREM1 withdrawal assay, RT–qPCR and immunoblot; type: cell-based, human (SW480, mouse (MC38); details: rhGREM1 or rmGrem1 200 ng/mL 24 h, then GREM1-free medium 2 and 4 days
Experimental: To determine whether tumor cells that have acquired signaling autonomy can sustain GREM1 expression in the absence of external stimulation, we performed a GREM1 withdrawal assay. CRC cells (SW480, HCT116, and MC38) were first pulsed with rhGREM1 or recombinant mouse GREM1 (rmGrem1) for 24 h to initiate the signaling response. The medium containing rhGREM1 or rmGrem1 was then thoroughly removed, replaced with fresh GREM1-free medium, and the cells were cultured for an additional 4 days. […] This persistent, self-sustaining expression supports our conclusion that the initial rhGREM1 or rmGrem1 stimulation triggers a positive feedback loop of GREM1 transcription within CRC cells.
Protein was extracted from the cells with RIPA buffer (Beyotime, P0018) or NP40 lysis buffer (Beyotime, P0013F) and separated by SDS-PAGE, and transferred to polyvinylidene difluoride membranes. […] Band intensity was quantified using Fiji (ImageJ) by grayscale analysis.
Total RNA was extracted using Trizol reagent (Invitrogen, 15596026). […] The SYBR Green Premix Pro Taq HS qPCR Kit (Accurate Biology, AG11701) was then used to quantify mRNA expression according to the manufacturer’s instructions. All results were calculated using the 2^−ΔΔCt method. […]

[5] = biological target: T1, His-tagged full-length GREM1 (recombinant human GREM1-His) (human, UniProt O60565 25-184, red fluorescent label (NanoTemper, MO-L011) in the MST assays); assay: MST; Monolith NT.115; 50 nM red-fluorescently labelled GREM1-His or ACTIVIN B-His, unlabelled partner titrated (ACVR1C-ECD-Fc or double mutant 0–27.5 µM, ACVR1C peptide 0–2.3 µM); PBS pH 7.4; n = 3; details: both partners purified
T1 construct: also called recombinant GREM1; rhGREM1; source: bought: R&D, 5190-GR
T1 sequence (looked up): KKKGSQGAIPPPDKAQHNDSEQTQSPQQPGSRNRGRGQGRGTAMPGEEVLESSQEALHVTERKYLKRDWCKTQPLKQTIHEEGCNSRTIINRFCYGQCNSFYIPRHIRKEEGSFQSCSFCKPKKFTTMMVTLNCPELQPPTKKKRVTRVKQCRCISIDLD

[6] = biological target: ACTIVIN B-His (UniProt P09529); assay: as above

Sequence of FGFR1 (Homo sapiens) (P11362 22-376): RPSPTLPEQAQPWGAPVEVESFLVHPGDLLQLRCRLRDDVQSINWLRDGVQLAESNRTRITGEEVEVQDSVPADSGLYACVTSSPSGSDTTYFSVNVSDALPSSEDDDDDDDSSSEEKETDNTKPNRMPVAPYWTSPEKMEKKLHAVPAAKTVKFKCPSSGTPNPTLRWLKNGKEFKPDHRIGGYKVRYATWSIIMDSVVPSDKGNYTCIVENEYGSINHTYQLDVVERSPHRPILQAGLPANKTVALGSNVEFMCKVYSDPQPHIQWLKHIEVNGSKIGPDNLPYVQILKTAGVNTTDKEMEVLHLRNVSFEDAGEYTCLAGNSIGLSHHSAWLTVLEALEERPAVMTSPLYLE

Molecule: GREM1 (from UniProt O60565)
Kd [1]: 10.6 nM

Kd [2]: 854 ± 127 nM
Molecule: ACTIVIN B: a known ligand of ACVR1C; ACTIVIN B-His protein (SinoBiological, 10814-H08H)

B1: E85A: ACVR1C single mutant (protein, UniProt Q8NER5 21-493, looked up, variant E85A)
Activin receptor type-1C: ELSPGLKCVCLLCDSSNFTCQTEGACWASVMLTNGKEQVIKSCVSLPELNAQVFCHSSNNVTKTACCFTDFCNNITLHLPTASPNAPKLGPMELAIIITVPVCLLSIAAMLTVWACQGRQCSYRKKKRPNVEEPLSECNLVNAGKTLKDLIYDVTASGSGSGLPLLVQRTIARTIVLQEIVGKGRFGEVWHGRWCGEDVAVKIFSSRDERSWFREAEIYQTVMLRHENILGFIAADNKDNGTWTQLWLVSEYHEQGSLYDYLNRNIVTVAGMIKLALSIASGLAHLHMEIVGTQGKPAIAHRDIKSKNILVKKCETCAIADLGLAVKHDSILNTIDIPQNPKVGTKRYMAPEMLDDTMNVNIFESFKRADIYSVGLVYWEIARRCSVGGIVEEYQLPYYDMVPSDPSIEEMRKVVCDQKFRPSIPNQWQSCEALRVMGRIMRECWYANGAARLTALRIKKTISQLCVKEDCKA
effect of deletion or mutation on GREM1–ACVR1C interaction [3]: significantly abrogated the GREM1–ACVR1C interaction
effect of deletion or mutation on GREM1–ACVR1C interaction ([3]; listed as AA85 mutant (M2)): impaired

B2: T101A: ACVR1C single mutant (protein)
chain: ELSPGLKCVCLLCDSSNFTCQTEGACWASVMLTNGKEQVIKSCVSLPELNAQVFCHSSNNVTKTECCFTDFCNNITLHLPAASPNAPKLGPMELAIIITVPVCLLSIAAMLTVWACQGRQCSYRKKKRPNVEEPLSECNLVNAGKTLKDLIYDVTASGSGSGLPLLVQRTIARTIVLQEIVGKGRFGEVWHGRWCGEDVAVKIFSSRDERSWFREAEIYQTVMLRHENILGFIAADNKDNGTWTQLWLVSEYHEQGSLYDYLNRNIVTVAGMIKLALSIASGLAHLHMEIVGTQGKPAIAHRDIKSKNILVKKCETCAIADLGLAVKHDSILNTIDIPQNPKVGTKRYMAPEMLDDTMNVNIFESFKRADIYSVGLVYWEIARRCSVGGIVEEYQLPYYDMVPSDPSIEEMRKVVCDQKFRPSIPNQWQSCEALRVMGRIMRECWYANGAARLTALRIKKTISQLCVKEDCKA
modifications: left off: Flag, end not stated, state not stated | GFP, end not stated, state not stated
notes: ACVR1C single mutant
effect of deletion or mutation on GREM1–ACVR1C interaction [3]: significantly abrogated the GREM1–ACVR1C interaction
effect of deletion or mutation on GREM1–ACVR1C interaction ([3]; listed as AA101 mutant (M3) of ACVR1C): impaired

B3: Q101A/T102A/T112A/N115A quadruple mutation in GREM1: GREM1 point mutant (protein)
chain: KKKGSQGAIPPPDKAQHNDSEQTQSPQQPGSRNRGRGQGRGTAMPGEEVLESSQEALHVTERKYLKRDWCKTQPLKAAIHEEGCNSRAIIARFCYGQCNSFYIPRHIRKEEGSFQSCSFCKPKKFTTMMVTLNCPELQPPTKKKRVTRVKQCRCISIDLD
modifications: left off: HA, end not stated, state not stated | mCherry, end not stated, state not stated
notes: GREM1 point mutant
effect of deletion or mutation on GREM1–ACVR1C interaction [3]: significantly abrogated the GREM1–ACVR1C interaction
effect of deletion or mutation on GREM1–ACVR1C interaction ([3]; listed as AA101/102/112/115 mutant (M3) of GREM1): impaired

B4: rmGrem1: recombinant mouse GREM1 (protein, UniProt O70326 25-184, looked up)
Gremlin-1: KKKGSQGAIPPPDKAQHNDSEQTQSPPQPGSRTRGRGQGRGTAMPGEEVLESSQEALHVTERKYLKRDWCKTQPLKQTIHEEGCNSRTIINRFCYGQCNSFYIPRHIRKEEGSFQSCSFCKPKKFTTMMVTLNCPELQPPTKKKRVTRVKQCRCISIDLD
endogenous GREM1 expression after withdrawal [4]: not only maintained but in some cases further increased even after the withdrawal of exogenous GREM1; also recorded: maintained elevated endogenous GREM1 expression even after withdrawal of exogenous GREM1

Kd [5]: 67.7 nM
Kd [6]: 854 nM
B5: Fc-tagged ACVR1C extracellular domain (ACVR1C-ECD, AA1–113) (Fc fusion, human, UniProt Q8NER5-1 21-113, looked up)
chain: ELSPGLKCVCLLCDSSNFTCQTEGACWASVMLTNGKEQVIKSCVSLPELNAQVFCHSSNNVTKTECCFTDFCNNITLHLPTASPNAPKLGPME
notes: signal peptide in the construct; Vector pcDNA3.4; also called ACVR1C-ECD-Fc; recombinant human ACVR1C-ECD and Fc chimera protein; source: Expi293F, transfected, purified from supernatant (Protein G column, ion exchange)

Kd [5]: 92.3 nM
Molecule: TECCFTDFCNNITLHLPTA (peptide, UniProt Q8NER5 84-102, looked up, ACVR1C, human, residues 84–102) [ACVR1C peptide (amino acid residues 84–102 of ACVR1C)]
